US7557190

Target: T1, Ep-CAM/Fc (recombinant human) (human, UniProt P16422)
T1 chain: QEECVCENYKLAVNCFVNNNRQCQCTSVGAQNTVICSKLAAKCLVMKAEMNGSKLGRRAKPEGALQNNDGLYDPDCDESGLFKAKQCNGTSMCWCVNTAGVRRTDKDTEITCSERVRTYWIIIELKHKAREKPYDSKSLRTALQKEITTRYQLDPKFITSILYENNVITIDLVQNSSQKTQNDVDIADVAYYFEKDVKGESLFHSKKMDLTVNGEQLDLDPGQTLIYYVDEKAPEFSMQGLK
Assay: SPR

- Kd: 64.9 nM
B1: H3.77/L3 (humanized 17-1A) (antibody, V domains shown)
VH: EVQLVESGGGLVQPGGSLRLSCAASGYSFTNYLIEWVRQAPGQGLEWMGVINPGSGGTNYNPSLKSRVTISADKSISTAYMELSSLRSEDTAVYFCARDGPWFAYWGQGTLVTVSS
VL: NIVMTQSPDSLAVSLGERATLSCRASENVVTYVSWYQQKPGQSPQLLIYGASNRYTGVPDRFTGSGSATDFTLTINSLEAEDAATYYCGQGYSYPYTFGGGTKLEIK
